Assay results as given in the RNAGym collection of RNA variant scans (doi:10.7554/elife.80360).

B1: Twister Ribozyme (parent)
chain: AACACUGCCAAUGCCGGUCCCAAGCCCGGAUAAAAGUGGAGGGGGCGG

Variants of: B1
Experiment: self-cleavage, relative activity (ratio to wild type); higher = more cleavage; co-transcriptional

Row | Variant | self-cleavage
1 | AACACUGUCAAUGCCGGUCCCAAGCCCGGAUAAAAGUGGAGGGGGCUG | 0.345
2 | AACACUGUCAAUGCCGGUCCCAAGCCCGGAUAAAAGUGGAGGGGGCGA | 0.45
3 | AACACUGUCAAUGCCGGUCCCAAGCCCGGAUAAAAGUGGAGGGGGCGC | 0.652
4 | AACACUGUCAAAGCCGGUCCCAAGCCCGGAUAAAAGUGGAGGGGGCGG | 0.825
5 | AACACUGUCAACGCCGGUCCCAAGCCCGGAUAAAAGUGGAGGGGGCGG | 0.753
6 | AACACUGUCAAUGCCGGACCCAAGCCCGGAUAAAAGUGGAGGGGGCGG | 0.0657
7 | AACACUGUCAAUGCCGGUCCCAAGCCCGGAAAAAAGUGGAGGGGGCGG | 0.592
8 | AACACUGUCAAUGCCGGUCCCAAGCCCGGAGAAAAGUGGAGGGGGCGG | 0.603
9 | AACACUGUCAAUGCCGGUCCCAAGCCCGGAUAAAAGAGGAGGGGGCGG | 0.307
10 | AACACUGUCAAUGCCGGUCCCAAGCCCGGAUAAAAGCGGAGGGGGCGG | 0.284
11 | AACACUGCAAAUGCCGGUCCCAAGCCCGGAUAAAAGUGGAGGGGGCGG | 0.776
12 | AACACUGCACAUGCCGGUCCCAAGCCCGGAUAAAAGUGGAGGGGGCGG | 0.574
13 | AACACUGCAGAUGCCGGUCCCAAGCCCGGAUAAAAGUGGAGGGGGCGG | 0.648
14 | AACACUGCAUAUGCCGGUCCCAAGCCCGGAUAAAAGUGGAGGGGGCGG | 0.646
15 | AACACUGCAAAUGCCGGUCCCCAGCCCGGAUAAAAGUGGAGGGGGCGG | 0.642
16 | AACACUGCAAAUGCCGGUCCCGAGCCCGGAUAAAAGUGGAGGGGGCGG | 0.101
17 | AACACUGCAAAUGCCGGUCCCUAGCCCGGAUAAAAGUGGAGGGGGCGG | 0.259
18 | AACACUGCAAAUGCCGGUCCCAGGCCCGGAUAAAAGUGGAGGGGGCGG | 0.055
19 | AACACUGCAAAUGCCGGUCCCAAGCCCGGCUAAAAGUGGAGGGGGCGG | 0.608
20 | AACACUGCAAAUGCCGGUCCCAAGCCCGGGUAAAAGUGGAGGGGGCGG | 0.846
21 | AACACUGCAAAUGCCGGUCCCAAGCCCGGUUAAAAGUGGAGGGGGCGG | 0.725
22 | AACACUGCAAAUGCCGGUCCCAAGCCCGGAUCAAAGUGGAGGGGGCGG | 0.665
23 | AACACUGCAAAUGCCGGUCCCAAGCCCGGAUGAAAGUGGAGGGGGCGG | 0.729
24 | AACACUGCAAAUGCCGGUCCCAAGCCCGGAUAGAAGUGGAGGGGGCGG | 0.522
25 | AACACUGCAAAUGCCGGUCCCAAGCCCGGAUAUAAGUGGAGGGGGCGG | 0.638
26 | AACACUGCAAAUGCCGGUCCCAAGCCCGGAUAAGAGUGGAGGGGGCGG | 0.501
27 | AACACUGCAAAUGCCGGUCCCAAGCCCGGAUAAUAGUGGAGGGGGCGG | 0.535

Row | Variant | self-cleavage
28 | AACACUGCAAAUGCCGGUCCCAAGCCCGGAUAAACGUGGAGGGGGCGG | 0.66
29 | AACACUGCAAAUGCCGGUCCCAAGCCCGGAUAAAGGUGGAGGGGGCGG | 0.548
30 | AACACUGCAAAUGCCGGUCCCAAGCCCGGAUAAAUGUGGAGGGGGCGG | 0.628
31 | AACACUGCAAAUGCCGGUCCCAAGCCCGGAUAAAAGUGGGGGGGGCGG | 0.129
32 | AACACUGCAAAUGACGGUCCCAAGCCCGGAUAAAAGUGGAGGGGGCGG | 0.61
33 | AACACUGCAAAUGUCGGUCCCAAGCCCGGAUAAAAGUGGAGGGGGCGG | 0.697
34 | AACACUGCAAAUGCAGGUCCCAAGCCCGGAUAAAAGUGGAGGGGGCGG | 0.35
35 | AACACUGCAAAUGCUGGUCCCAAGCCCGGAUAAAAGUGGAGGGGGCGG | 0.567
36 | AACACUGCAAAUGCCGGUACCAAGCCCGGAUAAAAGUGGAGGGGGCGG | 0.089
37 | AACACUGCAAAUGCCGGUGCCAAGCCCGGAUAAAAGUGGAGGGGGCGG | 0.0837
38 | AACACUGCAAAUGCCGGUCGCAAGCCCGGAUAAAAGUGGAGGGGGCGG | 0.0801
39 | AACACUGCAAAUGCCGGUCCCAAGGCCGGAUAAAAGUGGAGGGGGCGG | 0.0787
40 | AACACUGCAAAUGCCGGUCCCAAGUCCGGAUAAAAGUGGAGGGGGCGG | 0.185
41 | AACACUGCAAAUGCCGGUCCCAAGCUCGGAUAAAAGUGGAGGGGGCGG | 0.06
42 | AACACUGCAAAUGCCGGUCCCAAGCCAGGAUAAAAGUGGAGGGGGCGG | 0.103
43 | AACACUGCAAAUGCCGGUCCCAAGCCGGGAUAAAAGUGGAGGGGGCGG | 0.0551
44 | AACACUGCAAAUGCCGGUCCCAAGCCUGGAUAAAAGUGGAGGGGGCGG | 0.304
45 | AACACUGCAAAUGCCGGUCCCAAGCCCGGAUAAAAGUGGAGGGGGAGG | 0.426
46 | AACACUGCAAAUGCCGGUCCCAAGCCCGGAUAAAAGUGGAGGGGGUGG | 0.758
47 | AACACUGCAAAUACCGGUCCCAAGCCCGGAUAAAAGUGGAGGGGGCGG | 1.09
48 | AACACUGCAAAUCCCGGUCCCAAGCCCGGAUAAAAGUGGAGGGGGCGG | 0.729
49 | AACACUGCAAAUGCCAGUCCCAAGCCCGGAUAAAAGUGGAGGGGGCGG | 0.372
50 | AACACUGCAAAUGCCCGUCCCAAGCCCGGAUAAAAGUGGAGGGGGCGG | 0.087
51 | AACACUGCAAAUGCCGCUCCCAAGCCCGGAUAAAAGUGGAGGGGGCGG | 0.0631
52 | AACACUGCAAAUGCCGUUCCCAAGCCCGGAUAAAAGUGGAGGGGGCGG | 0.0549
53 | AACACUGCAAAUGCCGGUCCCAAACCCGGAUAAAAGUGGAGGGGGCGG | 0.0968
54 | AACACUGCAAAUGCCGGUCCCAAUCCCGGAUAAAAGUGGAGGGGGCGG | 0.111
